Laboratory results published in patent US20150273048A1.

Assays:
[1] = molecular target: TL-M2e5x fusion protein (Toll-like receptor ligand sequence plus five tandem heterologous M2e domain); assay: ELISA on VLPs with 14C2
[2] = molecular target: TL-M2e5x fusion protein (Toll-like receptor ligand sequence plus five tandem heterologous M2e domain); assay: ELISA on VLPs and virus with 14C2

## Influenza A virus M2 monoclonal antibody 14C2 (Abcam Inc., Cambridge, Mass.)
[1]
  fold reactivity relative to M2WT VLP: > 60 fold
[2]
  fold reactivity relative to A/Philippines/2/82 virus: 500 fold
